Assays:
Conditions in all cases: protein: recombinant; chain copies: 2; single strand 25 nt
nsP13 helicase [1] = target: T1, nsP13 helicase (SARS-CoV-2, UniProt P0DTD1 5325-5925); experiment: competition, 500 nM ssDNA-F, 30 nM nsP13; 3 mM ATPgS, 5 mM Mg2+; K1/2 of TrapDNA
nsP13 helicase [2] = target: T1, nsP13 helicase; experiment: competition, 500 nM ssDNA-F, 30 nM nsP13; 3 mM ATP, 5 mM Mg2+; K1/2 of TrapDNA
nsP13 helicase [3] = target: T1, nsP13 helicase; experiment: competition, 500 nM ssDNA-F, 30 nM nsP13

Question: Which results are given for TCTAATGTAGTATAGTAATCCGCTC (ssDNA) [TrapDNA]?
Answer: IC50 (nsP13 helicase [1]): 3100 nM; IC50 (nsP13 helicase [2]): 950 nM; IC50 (nsP13 helicase [3]): 460 nM
